From US20200247885A1

Biological target: murine P2X purinoceptor 4 (Q9JJX6) (mouse) (UniProt Q9JJX6)
Assay: cell-based or functional assay

UniProt Q9JJX6, sequence (Q9JJX6 whole entry, form in doubt): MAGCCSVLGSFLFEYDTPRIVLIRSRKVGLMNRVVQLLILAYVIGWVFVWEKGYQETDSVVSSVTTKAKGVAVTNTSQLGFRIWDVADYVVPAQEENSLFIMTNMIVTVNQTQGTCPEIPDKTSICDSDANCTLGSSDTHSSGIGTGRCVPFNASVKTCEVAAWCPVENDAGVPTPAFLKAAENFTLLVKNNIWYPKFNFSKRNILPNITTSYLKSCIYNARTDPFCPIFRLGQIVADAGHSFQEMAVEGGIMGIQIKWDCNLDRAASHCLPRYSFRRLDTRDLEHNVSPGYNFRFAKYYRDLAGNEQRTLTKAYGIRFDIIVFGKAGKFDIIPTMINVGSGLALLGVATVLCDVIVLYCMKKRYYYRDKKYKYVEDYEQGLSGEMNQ

Q: Which fraction of control current (fraction of control current) does the source give for hIgG1 NIP 228 TM (antibody) here?
A: 1.08
